Measurements as given in patent publication US20210054030.

Key:
[1] = tested on: TALE-HD (MAPK6 target) (Xanthomonas (TALE scaffold)?); assay: inhibition; conditions: MspI protection, 25 C
[2] = tested on: TET1 TALE-VP64 (RG) (Xanthomonas (TALE scaffold)?); assay: cell_activity; conditions: 5mC at CpG (cellular, high); HeLa
[3] = tested on: TALE-(NP)3-VP64 (Xanthomonas (TALE scaffold)?); assay: cell_activity; conditions: HEK293T
[4] = tested on: TALE-(CP)3-VP64 (Xanthomonas (TALE scaffold)?); assay: cell_activity; conditions: HEK293T
[5] = tested on: TALE-(FT)3-VP64 (Xanthomonas (TALE scaffold)?); assay: cell_activity; conditions: HEK293T
[6] = tested on: TALE-(CV)3-VP64 (Xanthomonas (TALE scaffold)?); assay: cell_activity; conditions: HEK293T
[7] = 6mA at bases 7-9 of the site, forward strand

TTCAGCTGGATCCCGGGAGGAGCGGATATAACCAGG (double strand) [MAPK6 probe, 5hmC]
binding signal (fold higher Ki than for C) ([1]; 5hmC at second C of the MspI site CCGG (C14)): > 30

TAGGCGTCCTCCGCGAC (double strand) [TET1 promoter, HeLa (highly methylated)]
activity (fold induction) [2]: 10

TTCAGCTGGATCCCGGGAGGAGCGGATATAACCAGG (double strand) [MAPK6 probe, 5mC]
binding signal (fold higher Ki than for C) ([1]; 5mC at second C of the MspI site CCGG (C14)): > 30

CTGGCCAAATACGTA (double strand) [A reporter]
6mA/A selectivity ratio [3]: > 5 6mA/A ratio
6mA/A selectivity ratio [4]: > 5 6mA/A ratio
6mA/A selectivity ratio [5]: > 5 6mA/A ratio
6mA/A selectivity ratio [6]: > 5 6mA/A ratio

CTGGCCAAATACGTA (double strand) [6mA reporter]
activity (fold EGFP induction) ([3]; 6mA at bases 7-9 of the site, forward strand, strongest of the 6mA-specific RVDs): > 5
activity (fold EGFP induction) [4, 7]: > 5
activity (fold EGFP induction) [5, 7]: > 5
activity (fold EGFP induction) [6, 7]: > 5
